The record followed here is article PMC9596428.

Test [1] addresses mVenus-tagged CaMKIIα K42R mutant holoenzyme (mouse) (UniProt P11798). In words: FRET or BRET; in vitro time-lapse binary-FRET (mVenus lifetime for hetero-FRET to mCherry, anisotropy for homo-FRET); V-CaMKII homogenate (15-20 nM holoenzyme) with 10 µM purified NR2B fragment in 1x kinase buffer, 1 mM DTT, 1 mM CaCl2, 1 mM ATP, 1 mM MgCl2, 5 µM calmodulin; room temperature; followed over 3 h.

Test [2] addresses mVenus-tagged CaMKIIα holoenzyme (mVenus-mCaMKIIα), wild type (mouse) (UniProt P11798). The test is described as above.

With “mCherry-tagged NR2B binding fragment (6His-mCherry-Flag-NR2B 1265-1320) (from UniProt Q13224 1265-1320) (domain or fragment)”, the hetero-FRET efficiency stood at 12.6% in test [1] and 11.9% in test [2].
